Data taken from patent publication US20110289632.

Test system: 3-ketomyristoyl-ACP (enzymatically prepared from ShACP)

Sequence of ShMKS2 (methylketone synthase 2 from Solanum habrochaites f glabratum), recombinant, without the transit peptide, His-tagged (chain, as listed by the source): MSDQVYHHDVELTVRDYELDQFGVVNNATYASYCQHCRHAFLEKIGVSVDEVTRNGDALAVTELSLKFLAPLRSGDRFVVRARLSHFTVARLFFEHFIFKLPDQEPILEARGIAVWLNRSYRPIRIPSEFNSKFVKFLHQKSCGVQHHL

ShMKS2 (methylketone synthase 2 from Solanum habrochaites f glabratum), recombinant, without the transit peptide, His-tagged
amount of 2-tridecanone formed (in vitro thioesterase activity assay, acid and heat treatment, GC-MS): approximately 3-fold higher than levels found in buffer-incubated substrate solution treated with acid and heat
